# Measurements: the RNAGym collection of RNA variant scans (doi:10.1021/acssynbio.7b00057)
# B1: Pistol ribozyme (parent)
# chain: GGGUCGUUGUUCCAUAAUCGCGUGGAUAUGGCACGCAAGUUUCUACCGGGCACCGUAAAUGUCCGACUGGAGCCGUUCGGGCGGCUAUAAACAGACCUCAGGCCCGAAGCGUGGCGGCACCUGCCGCCGGUGGUAAAAAAGAUCGGAAGAGCACACGUCU
# Variants of: B1
# Experiment: aptazyme ON/OFF ratio, guanine; higher = stronger switching; co-transcriptional cleavage with and without guanine
row,Variant,aptazyme ON/OFF ratio
1,GGGUCGUGCUUAUAUAAUCGCGUGGAUAUGGCACGCAAGUUUCUACCGGGCACCGUAAAUGUCCGACUGGAGCCGUUCGGGCGGCUAUAAACAGACCUCAGGCCCGAAGCGUGGCGGCACCUGCCGCCGGUGGUAAAAAAGAUCGGAAGAGCACACGUCU [U8G G9C C12A C13U],1.07
2,GGGUCGUGCUUAGAUAAUCGCGUGGAUAUGGCACGCAAGUUUCUACCGGGCACCGUAAAUGUCCGACUGGAGCCGUUCGGGCGGCUAUAAACAGACCUCAGGCCCGAAGCGUGGCGGCACCUGCCGCCGGUGGUAAAAAAGAUCGGAAGAGCACACGUCU [U8G G9C C12A C13G],1.03
3,GGGUCGUGCUUAAAUAAUCGCGUGGAUAUGGCACGCAAGUUUCUACCGGGCACCGUAAAUGUCCGACUGGAGCCGUUCGGGCGGCUAUAAACAGACCUCAGGCCCGAAGCGUGGCGGCACCUGCCGCCGGUGGUAAAAAAGAUCGGAAGAGCACACGUCU [U8G G9C C12A C13A],1.04
4,GGGUCGUGCAUAGAUAAUCGCGUGGAUAUGGCACGCAAGUUUCUACCGGGCACCGUAAAUGUCCGACUGGAGCCGUUCGGGCGGCUAUAAACAGACCUCAGGCCCGAAGCGUGGCGGCACCUGCCGCCGGUGGUAAAAAAGAUCGGAAGAGCACACGUCU [U8G G9C U10A C12A C13G],1.12
5,GGGUCGUGCAUAAAUAAUCGCGUGGAUAUGGCACGCAAGUUUCUACCGGGCACCGUAAAUGUCCGACUGGAGCCGUUCGGGCGGCUAUAAACAGACCUCAGGCCCGAAGCGUGGCGGCACCUGCCGCCGGUGGUAAAAAAGAUCGGAAGAGCACACGUCU [U8G G9C U10A C12A C13A],1.13
6,GGGUCGUGCAUAUAUAAUCGCGUGGAUAUGGCACGCAAGUUUCUACCGGGCACCGUAAAUGUCCGACUGGAGCCGUUCGGGCGGCUAUAAACAGACCUCAGGCCCGAAGCGUGGCGGCACCUGCCGCCGGUGGUAAAAAAGAUCGGAAGAGCACACGUCU [U8G G9C U10A C12A C13U],1.17
7,GGGUCGUGCUUCCAUAAUCGCGUGGAUAUGGCACGCAAGUUUCUACCGGGCACCGUAAAUGUCCGACUGGAGCCGUUCGGGCGGCUAUAAACAGACCUCAGGCCCGAAGCGUGGCGGCACCUGCCGCCGGUGGUAAAAAAGAUCGGAAGAGCACACGUCU [U8G G9C],1.09
8,GGGUCGUGCAUUGAUAAUCGCGUGGAUAUGGCACGCAAGUUUCUACCGGGCACCGUAAAUGUCCGACUGGAGCCGUUCGGGCGGCUAUAAACAGACCUCAGGCCCGAAGCGUGGCGGCACCUGCCGCCGGUGGUAAAAAAGAUCGGAAGAGCACACGUCU [U8G G9C U10A C12U C13G],1.1
9,GGGUCGUGCAUUUAUAAUCGCGUGGAUAUGGCACGCAAGUUUCUACCGGGCACCGUAAAUGUCCGACUGGAGCCGUUCGGGCGGCUAUAAACAGACCUCAGGCCCGAAGCGUGGCGGCACCUGCCGCCGGUGGUAAAAAAGAUCGGAAGAGCACACGUCU [U8G G9C U10A C12U C13U],1.07
10,GGGUCGUGCAUUAAUAAUCGCGUGGAUAUGGCACGCAAGUUUCUACCGGGCACCGUAAAUGUCCGACUGGAGCCGUUCGGGCGGCUAUAAACAGACCUCAGGCCCGAAGCGUGGCGGCACCUGCCGCCGGUGGUAAAAAAGAUCGGAAGAGCACACGUCU [U8G G9C U10A C12U C13A],1.15
11,GGGUCGUGCAUUCAUAAUCGCGUGGAUAUGGCACGCAAGUUUCUACCGGGCACCGUAAAUGUCCGACUGGAGCCGUUCGGGCGGCUAUAAACAGACCUCAGGCCCGAAGCGUGGCGGCACCUGCCGCCGGUGGUAAAAAAGAUCGGAAGAGCACACGUCU [U8G G9C U10A C12U],1.08
12,GGGUCGUGCAUACAUAAUCGCGUGGAUAUGGCACGCAAGUUUCUACCGGGCACCGUAAAUGUCCGACUGGAGCCGUUCGGGCGGCUAUAAACAGACCUCAGGCCCGAAGCGUGGCGGCACCUGCCGCCGGUGGUAAAAAAGAUCGGAAGAGCACACGUCU [U8G G9C U10A C12A],1.23
13,GGGUCGUGCAUGCAUAAUCGCGUGGAUAUGGCACGCAAGUUUCUACCGGGCACCGUAAAUGUCCGACUGGAGCCGUUCGGGCGGCUAUAAACAGACCUCAGGCCCGAAGCGUGGCGGCACCUGCCGCCGGUGGUAAAAAAGAUCGGAAGAGCACACGUCU [U8G G9C U10A C12G],1.1
14,GGGUCGUGAUGCAAUAAUCGCGUGGAUAUGGCACGCAAGUUUCUACCGGGCACCGUAAAUGUCCGACUGGAGCCGUUCGGGCGGCUAUAAACAGACCUCAGGCCCGAAGCGUGGCGGCACCUGCCGCCGGUGGUAAAAAAGAUCGGAAGAGCACACGUCU [U8G G9A U11G C13A],1.07
15,GGGUCGUGAUGCGAUAAUCGCGUGGAUAUGGCACGCAAGUUUCUACCGGGCACCGUAAAUGUCCGACUGGAGCCGUUCGGGCGGCUAUAAACAGACCUCAGGCCCGAAGCGUGGCGGCACCUGCCGCCGGUGGUAAAAAAGAUCGGAAGAGCACACGUCU [U8G G9A U11G C13G],1.05
16,GGGUCGUGAUGCUAUAAUCGCGUGGAUAUGGCACGCAAGUUUCUACCGGGCACCGUAAAUGUCCGACUGGAGCCGUUCGGGCGGCUAUAAACAGACCUCAGGCCCGAAGCGUGGCGGCACCUGCCGCCGGUGGUAAAAAAGAUCGGAAGAGCACACGUCU [U8G G9A U11G C13U],1.04
17,GGGUCGUGCAUCCAUAAUCGCGUGGAUAUGGCACGCAAGUUUCUACCGGGCACCGUAAAUGUCCGACUGGAGCCGUUCGGGCGGCUAUAAACAGACCUCAGGCCCGAAGCGUGGCGGCACCUGCCGCCGGUGGUAAAAAAGAUCGGAAGAGCACACGUCU [U8G G9C U10A],1.13
18,GGGUCGUGAUGUGAUAAUCGCGUGGAUAUGGCACGCAAGUUUCUACCGGGCACCGUAAAUGUCCGACUGGAGCCGUUCGGGCGGCUAUAAACAGACCUCAGGCCCGAAGCGUGGCGGCACCUGCCGCCGGUGGUAAAAAAGAUCGGAAGAGCACACGUCU [U8G G9A U11G C12U C13G],1.16

row,Variant,aptazyme ON/OFF ratio
1,GGGUCGUGAUGUAAUAAUCGCGUGGAUAUGGCACGCAAGUUUCUACCGGGCACCGUAAAUGUCCGACUGGAGCCGUUCGGGCGGCUAUAAACAGACCUCAGGCCCGAAGCGUGGCGGCACCUGCCGCCGGUGGUAAAAAAGAUCGGAAGAGCACACGUCU [U8G G9A U11G C12U C13A],1.2
2,GGGUCGUGAUGUUAUAAUCGCGUGGAUAUGGCACGCAAGUUUCUACCGGGCACCGUAAAUGUCCGACUGGAGCCGUUCGGGCGGCUAUAAACAGACCUCAGGCCCGAAGCGUGGCGGCACCUGCCGCCGGUGGUAAAAAAGAUCGGAAGAGCACACGUCU [U8G G9A U11G C12U C13U],1.24
3,GGGUCGUGCAUCAAUAAUCGCGUGGAUAUGGCACGCAAGUUUCUACCGGGCACCGUAAAUGUCCGACUGGAGCCGUUCGGGCGGCUAUAAACAGACCUCAGGCCCGAAGCGUGGCGGCACCUGCCGCCGGUGGUAAAAAAGAUCGGAAGAGCACACGUCU [U8G G9C U10A C13A],1.07
4,GGGUCGUGCAUGAAUAAUCGCGUGGAUAUGGCACGCAAGUUUCUACCGGGCACCGUAAAUGUCCGACUGGAGCCGUUCGGGCGGCUAUAAACAGACCUCAGGCCCGAAGCGUGGCGGCACCUGCCGCCGGUGGUAAAAAAGAUCGGAAGAGCACACGUCU [U8G G9C U10A C12G C13A],1.16
5,GGGUCGUGCAUGUAUAAUCGCGUGGAUAUGGCACGCAAGUUUCUACCGGGCACCGUAAAUGUCCGACUGGAGCCGUUCGGGCGGCUAUAAACAGACCUCAGGCCCGAAGCGUGGCGGCACCUGCCGCCGGUGGUAAAAAAGAUCGGAAGAGCACACGUCU [U8G G9C U10A C12G C13U],1.17
6,GGGUCGUGCAUGGAUAAUCGCGUGGAUAUGGCACGCAAGUUUCUACCGGGCACCGUAAAUGUCCGACUGGAGCCGUUCGGGCGGCUAUAAACAGACCUCAGGCCCGAAGCGUGGCGGCACCUGCCGCCGGUGGUAAAAAAGAUCGGAAGAGCACACGUCU [U8G G9C U10A C12G C13G],1.16
7,GGGUCGUGCUUCGAUAAUCGCGUGGAUAUGGCACGCAAGUUUCUACCGGGCACCGUAAAUGUCCGACUGGAGCCGUUCGGGCGGCUAUAAACAGACCUCAGGCCCGAAGCGUGGCGGCACCUGCCGCCGGUGGUAAAAAAGAUCGGAAGAGCACACGUCU [U8G G9C C13G],1.03
8,GGGUCGUGCUUCAAUAAUCGCGUGGAUAUGGCACGCAAGUUUCUACCGGGCACCGUAAAUGUCCGACUGGAGCCGUUCGGGCGGCUAUAAACAGACCUCAGGCCCGAAGCGUGGCGGCACCUGCCGCCGGUGGUAAAAAAGAUCGGAAGAGCACACGUCU [U8G G9C C13A],1.04
9,GGGUCGUGCUUCUAUAAUCGCGUGGAUAUGGCACGCAAGUUUCUACCGGGCACCGUAAAUGUCCGACUGGAGCCGUUCGGGCGGCUAUAAACAGACCUCAGGCCCGAAGCGUGGCGGCACCUGCCGCCGGUGGUAAAAAAGAUCGGAAGAGCACACGUCU [U8G G9C C13U],1.04
10,GGGUCGUGCUUGUAUAAUCGCGUGGAUAUGGCACGCAAGUUUCUACCGGGCACCGUAAAUGUCCGACUGGAGCCGUUCGGGCGGCUAUAAACAGACCUCAGGCCCGAAGCGUGGCGGCACCUGCCGCCGGUGGUAAAAAAGAUCGGAAGAGCACACGUCU [U8G G9C C12G C13U],1.05
11,GGGUCGUGCUUGAAUAAUCGCGUGGAUAUGGCACGCAAGUUUCUACCGGGCACCGUAAAUGUCCGACUGGAGCCGUUCGGGCGGCUAUAAACAGACCUCAGGCCCGAAGCGUGGCGGCACCUGCCGCCGGUGGUAAAAAAGAUCGGAAGAGCACACGUCU [U8G G9C C12G C13A],1.05
12,GGGUCGUGCUUGGAUAAUCGCGUGGAUAUGGCACGCAAGUUUCUACCGGGCACCGUAAAUGUCCGACUGGAGCCGUUCGGGCGGCUAUAAACAGACCUCAGGCCCGAAGCGUGGCGGCACCUGCCGCCGGUGGUAAAAAAGAUCGGAAGAGCACACGUCU [U8G G9C C12G C13G],1.03
13,GGGUCGUGCUUUGAUAAUCGCGUGGAUAUGGCACGCAAGUUUCUACCGGGCACCGUAAAUGUCCGACUGGAGCCGUUCGGGCGGCUAUAAACAGACCUCAGGCCCGAAGCGUGGCGGCACCUGCCGCCGGUGGUAAAAAAGAUCGGAAGAGCACACGUCU [U8G G9C C12U C13G],1.04
14,GGGUCGUGCUUUUAUAAUCGCGUGGAUAUGGCACGCAAGUUUCUACCGGGCACCGUAAAUGUCCGACUGGAGCCGUUCGGGCGGCUAUAAACAGACCUCAGGCCCGAAGCGUGGCGGCACCUGCCGCCGGUGGUAAAAAAGAUCGGAAGAGCACACGUCU [U8G G9C C12U C13U],1.06
15,GGGUCGUGCUUUAAUAAUCGCGUGGAUAUGGCACGCAAGUUUCUACCGGGCACCGUAAAUGUCCGACUGGAGCCGUUCGGGCGGCUAUAAACAGACCUCAGGCCCGAAGCGUGGCGGCACCUGCCGCCGGUGGUAAAAAAGAUCGGAAGAGCACACGUCU [U8G G9C C12U C13A],1.05
16,GGGUCGUGCUUGCAUAAUCGCGUGGAUAUGGCACGCAAGUUUCUACCGGGCACCGUAAAUGUCCGACUGGAGCCGUUCGGGCGGCUAUAAACAGACCUCAGGCCCGAAGCGUGGCGGCACCUGCCGCCGGUGGUAAAAAAGAUCGGAAGAGCACACGUCU [U8G G9C C12G],1.05
17,GGGUCGUGCUUACAUAAUCGCGUGGAUAUGGCACGCAAGUUUCUACCGGGCACCGUAAAUGUCCGACUGGAGCCGUUCGGGCGGCUAUAAACAGACCUCAGGCCCGAAGCGUGGCGGCACCUGCCGCCGGUGGUAAAAAAGAUCGGAAGAGCACACGUCU [U8G G9C C12A],1.07
18,GGGUCGUGCUUUCAUAAUCGCGUGGAUAUGGCACGCAAGUUUCUACCGGGCACCGUAAAUGUCCGACUGGAGCCGUUCGGGCGGCUAUAAACAGACCUCAGGCCCGAAGCGUGGCGGCACCUGCCGCCGGUGGUAAAAAAGAUCGGAAGAGCACACGUCU [U8G G9C C12U],1.07
